Data on one substance can be found in patent US5122368A, “Anthracycline conjugates having a novel linker and methods for their production” (Bristol-Myers Squibb Company, priority 1989, dated 1992).

Entries after “also recorded” stand apart in the source; their conditions may differ.

The target in the assay is T1, EGF receptor (Homo sapiens, UniProt P00533).
T1 construct: endogenous in cells; host or cells: A431 cells
The experiment in a line: 125I-EGF competition radioisotope assay on A431 cells. It counts as binding. The following applies: 4° C., 4 h. The protocol:
The retention of EGF binding activity after chemical coupling of ADM-HZN to EGF was determined by a competition radioisotope assay, using the A431 cell line. This cell line was derived from a […] and in our laboratory can bind between 1-4×10^7 molecules of EGF (results not shown). Cells, diluted in RPMI 1640 growth medium containing 10% FCS, were plated in 96-well microtiter plates (5×10^5 cells/well) 24 h before the assay. On the day of the assay, the A431 cells, which grow as an adherent cell population, were washed in DMEM containing 2% bovine serum albumin (hereafter referred to as buffer A). Cells (in triplicate) were incubated with 0.05 ml of 2-fold serially diluted EGF or EGF-ADM, and 0.05 ml of ^125 I-labeled EGF (50 ng/ml) diluted in buffer A (final volume: 0.1 ml/well). The cells were incubated at 4° C. for 4 h, and then washed 3 times with buffer A. The cells were removed from the 96-well plastic plates by solubilization with 1.0M NaOH, and the amount of cell-bound ^125 I-EGF was determined by counting on a LKB model 1272 gamma counter.

For the substance “EGF-ADM: SPDP-thiolated murine EGF reacted with ADM-HZN, 13-keto acylhydrazone linker”, the “inhibition of 125I-EGF binding, binding activity vs unconjugated EGF” value is listed as “only a small loss in binding activity; also recorded: retention of binding activity”.
